Measurements published in publication PMC3252339, “Human PAPS Synthase Isoforms Are Dynamically Regulated Enzymes with Access to Nucleus and Cytoplasm” (PLoS ONE, 2012).
Changes are numbered by the printed parent chain. Numbers in names are those of the source.

B1: PAPS synthase 1 wild type (enzyme, human, UniProt O43252 1-624, looked up)
chain: MEIPGSLCKKVKLSNNAQNWGMQRATNVTYQAHHVSRNKRGQVVGTRGGFRGCTVWLTGLSGAGKTTVSMALEEYLVCHGIPCYTLDGDNIRQGLNKNLGFSPEDREENVRRIAEVAKLFADAGLVCITSFISPYTQDRNNARQIHEGASLPFFEVFVDAPLHVCEQRDVKGLYKKARAGEIKGFTGIDSEYEKPEAPELVLKTDSCDVNDCVQQVVELLQERDIVPVDASYEVKELYVPENKLHLAKTDAETLPALKINKVDMQWVQVLAEGWATPLNGFMREREYLQCLHFDCLLDGGVINLSVPIVLTATHEDKERLDGCTAFALMYEGRRVAILRNPEFFEHRKEERCARQWGTTCKNHPYIKMVMEQGDWLIGGDLQVLDRVYWNDGLDQYRLTPTELKQKFKDMNADAVFAFQLRNPVHNGHALLMQDTHKQLLERGYRRPVLLLHPLGGWTKDDDVPLMWRMKQHAAVLEEGVLNPETTVVAIFPSPMMYAGPTEVQWHCRARMVAGANFYIVGRDPAGMPHPETGKDLYEPSHGAKVLTMAPGLITLEIVPFRVAAYNKKKKRMDYYDSEHHEDFEFISGTRMRKLAREGQKPPEGFMAPKAWTVLTEYYKSLEKA
notes: also called PAPSS1; PAPSS1 wild type; source: E. coli expression strains, purified (GSH sepharose, PreScission digestion, Superdex 200)
B2: PAPS synthase 1 L119K (enzyme, human, UniProt O43252 1-624, looked up)
chain: B1 chain with L119K
notes: Same construct as m1 with the point mutation made by site-directed mutagenesis; the oligonucleotides are in Information S1; also called PAPSS1 L119K; source: E. coli expression strains, purified (GSH sepharose, PreScission digestion, Superdex 200)
B3: PAPS synthase 1 RR111,112AA (enzyme, human, UniProt O43252 1-624, looked up)
chain: B1 chain with R111A, R112A
notes: Same construct as m1 with the double mutation made by site-directed mutagenesis; the oligonucleotides are in Information S1; also called PAPSS1 RR111,112AA; source: E. coli expression strains, purified (GSH sepharose, PreScission digestion, Superdex 200)

Molecular target: the molecule itself
Test: SEC; analytical gel filtration on Superdex 200 10/300 GL in 20 mM Tris (pH 7.3), 180 mM NaCl, 0.1 mM EDTA, 1 mM DTT; loaded at 2-10 µM, at most three-fold diluted during the run; dimer to monomers

| Protein | stoichiometry N | Kd [nM] |
| --- | --- | --- |
| B1 | 2 | – |
| B2 | 2 | < 1000 |
| B3 | 2 | < 1000 |
